Each block holds one substance with its values, some of them ahead of it.
Molecular target: mouse Mc4r (melanocortin 4 receptor), untagged expression construct (mouse) (UniProt P56450)
Test: cell-based or functional assay

Chain of UniProt P56450 (P56450 whole entry): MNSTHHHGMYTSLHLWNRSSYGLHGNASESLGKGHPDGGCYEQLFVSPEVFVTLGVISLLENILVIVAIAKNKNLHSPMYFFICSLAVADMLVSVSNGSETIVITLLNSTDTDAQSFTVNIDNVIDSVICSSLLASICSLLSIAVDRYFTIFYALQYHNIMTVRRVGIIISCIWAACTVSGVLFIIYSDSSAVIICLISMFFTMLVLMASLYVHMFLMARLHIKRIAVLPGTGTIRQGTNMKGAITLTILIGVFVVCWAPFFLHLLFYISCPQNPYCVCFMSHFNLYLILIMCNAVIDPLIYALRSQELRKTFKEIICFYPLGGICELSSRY

αMSH-induced increase above basal PKA activity (CRELuc, CHO cells co-transfected with Mc4r and Mrap2delE3): < 2 fold
Substance: Mrap2delE3 (mouse Mrap2 with exon 3 deleted) (from UniProt D3Z1Q2 1-55)

αMSH-induced increase above basal PKA activity (CRELuc, CHO cells transfected with Mc4r alone): < 2 fold
Substance: α-melanocyte stimulating hormone (from UniProt P01189 138-150) (peptide)

αMSH-induced increase above basal PKA activity (CRELuc, CHO cells co-transfected with Mc4r and Mrap2, 0-10 nM αMSH): 5 fold
Substance: mouse Mrap2 (melanocortin 2 receptor accessory protein 2), untagged expression construct (from UniProt D3Z1Q2 1-207)

From patent US20160143256A1
